B1: Arginine-glutamic acid dipeptide repeats protein, residues 502 to 543; numbered along this chain, Q9P2R6 (parent)
chain: LKGYACRHCFTTTSKDWHHGGRENILLCTDCRIHFKKYGELP

Variants of: B1
Test: abundance fitness (aPCA) (normalised: wild type 0, dead -1); higher = more abundant; growth selection in yeast, the domain comes from the species named
Conditions: Homo sapiens

Abundance fitness of substitutions, site by site:
F10: I -0.352, M -0.083, Y -0.101, D -0.08, Q 0.03, C -0.036, K 0.017, N -0.238, R -0.014, P -0.279, H 0.134, W -0.054, V -0.331, A 0.054, L -0.068, S 0.015, T -0.099
Y4: R -0.155, P -0.257, Q -0.273, S -0.075, N 0.165, V -0.181, W -0.22, T -0.074, M 0.046
S14: E -0.223, C -0.315, K -0.066, A -0.228, L -0.536, I -0.454, F -0.516, G -0.291, D -0.073
A5: N -0.116, C 0.032, T 0.04, W 0.014, V -0.039, K -0.104, D -0.022, R 0.012, H 0.044, S 0.007, G 0.012, Q 0.039, L -0.018, M -0.046, F 0.144, Y -0.136, P -0.335
C6: M -1.1, H -0.601, Q -0.894, V -1.12, E -0.702, A -0.969, K -0.886, R -0.996, L -1, T -0.902, S -0.939, Y -1.05, G -0.878, W -1.28, F -1.03
T11: L -0.375, V -0.195, D -0.277, Q -0.278, W -0.589, Y -0.607, R -0.236, A -0.136, F -0.561, N -0.168, C -0.219, S -0.083, M -0.413, I -0.204, G -0.241, K -0.172, P -0.51, E -0.4
T12: G -0.312, F -0.314, K -0.135, A -0.234, D -0.141, C -0.304, V -0.343, N -0.251, M -0.241, W -0.669, Q -0.159, L -0.338, E -0.175, P -0.317, R -0.141, Y -0.549, S -0.205
R7: M -0.02, H -0.441, K 0.087, E 0.064, I -0.188, D -0.142, P -0.293, Q 0.036, A 0.074, V -0.098, L -0.067, N -0.115, Y -0.056, F -0.185, G 0.029, S 0.021, W -0.195
C9: D -0.547, E -0.318, G -0.455, Y -0.426, W -0.645, T -0.44, S -0.392, V -0.451, L -0.517, R -0.493, M -0.542, A -0.425, K -0.371, P -0.494, N -0.271
H8: E -0.348, R -0.229, F -0.387, M -0.347, Y -0.238, S -0.136, W -0.044, P -0.836, N 0.064, L -0.489, T -0.428, Q -0.307, A -0.189, G -0.222, I -0.292, C -0.259, K -0.368
T13: V -0.125, C -0.164, L -0.223, M -0.185, K 0.018, P -0.484, H -0.045, E 0.014, I -0.282, Q -0.039, F -0.179, R 0.012, Y -0.223, W -0.31, A -0.054, N -0.043

Source: the Human Domainome abundance scans (Beltran et al. 2025)
